Assay results taken from the supplement of paper PMC9170038.

Test system: MS2 coat protein
Experiment: apparent KD of MS2 coat protein; designed switch direction (-1 OFF switch, 1 ON switch): -1; higher = weaker reporter binding
Outline: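 Designed RNA switches sharing common flanks were transcribed on Illumina chips by stalled E. coli RNA polymerase. They were titrated with SNAP-549-labelled MS2 coat protein, from 0.7 or 1.5 nM doubling to 3 µM, in Tris-HCl pH 7.5 buffer with KCl, MgCl2, BSA, DTT, tRNA and Tween-20. Titrations ran without input, with 200 uM small-molecule ligand, or with an oligonucleotide input. The apparent KD of each design is the median over its clusters, after curve-fitting of normalised cluster fluorescence.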

[1] = Eterna round: R95, input ligand: microRNA oligo, concentration not stated
[2] = Eterna round: R95, input ligand: FMN 200 uM
[3] = Eterna round: R95, input ligand: none

Sequence	apparent KD of MS2 coat protein [1] [nM]	apparent KD of MS2 coat protein (input ligand: FMN 200 uM) [nM]	apparent KD of MS2 coat protein (input ligand: none) [nM]	apparent KD of MS2 coat protein [2] [nM]	apparent KD of MS2 coat protein [3] [nM]
GACUGGGCAGGAUAUACAUGAGGAUCACCCAUGUGUCUGCGUCAGGCACGUGUAGACGGUAGAAGGGCCUACAC [ChP 13.04.2015 #16] (puzzle: Exclusion 3)	11.9	–	–	–	–
GACUUCUGAGGAUAUACAUAGAUUUACAUGAGGAUCACCCAUGUUCCUCUAUGUAUAAAUGUAGAAGGCAGAAGAA [Mat - Exclusion 5 - JL Mod - D64] (Eterna round: R97, puzzle: Exclusion 5)	–	66.8	15.5	–	–
GACUUGUCAGGAUAUCUUACAUAAACAUCGUAGUUACAAUUGGAGAAGGGACAUGAGGAUCACCCAUGUUUGCC [tap-tap-tappy30] (Eterna round: R97, puzzle: Exclusion 4)	–	16.8	17.5	–	–
GACUUGUUAGGAUAUCUUACAUUUGCAUUAUAGCAACUAUUGGAGAAGGGACAUGAGGAUCACCCAUGUUUGGG [tap-tap-tappy17] (Eterna round: R97, puzzle: Exclusion 4)	–	504	479	–	–
GAGAAACAUGAGGAUCACCCAUGUAAGGAUAUGCUGAAAACAACGGAUAAAACGUGCAGCAGAAGGUACAAAGG [Mat - Mod of my Eli Mod D41] (puzzle: Exclusion 1)	72.1	–	–	76.5	72.4
GAGAAACAUGAGGAUCACCCAUGUCAGGAUAUUCGGAGGAGAGGGAAGAGAGAGAGGAGAAGAAGGGACGAGAG [Exclusion 1 Rhiboswitch & Hairpin Submission (Joejoemyo11)] (puzzle: Exclusion 1)	26	–	–	38.7	55.7
GAGAAACAUGAGGAUCACCCAUGUGAGGAUAUGAAAAAGAAAAGAAAAGAAAGAAGAAUCAGAAGGCACAAAGU [salish99-ex1_r3_088] (puzzle: Exclusion 1)	29.7	–	–	31.8	32.9
GAGAAAGCAAACAGGUGAAACAUGAGGAUCACCCAUGUCCUCAUUUGCUCGUCUUAUAAGCUAUGCGAAAGCAUAGC [Mat - Sensor v3 - turn-off var 1 - Eli Mod - D54] (puzzle: Sensor v3, turn-off variant 1)	642	–	–	63.5	58.7
GAGAACGUAGGAUAUACAUGAGGAUCACCCAUGUGAGGAAGGAGUAGGAAGAGUGGAAGUAGAAGGACGAAGAG [JR_Exclu3_Sub071] (puzzle: Exclusion 3)	36.3	–	–	29.3	43.8
GAGAAGGUAGGAUAUACGAAAAAAAAGGGUAGAAAAAAAACACAUGAGGAUCACCCAUGUAGAAGGACCAAAAG [salish99_ex2_r3_035] (puzzle: Exclusion 2)	24.6	–	–	68.9	28
GAGAAGGUAGGAUAUACGAAGAAAAAGGGUAGAAUAAGAACACAUGAGGAUCACCCAUGUAGAAGGACCAAGAG [Mat - Exclusion 2 - Mod of my Tesla design - D18] (puzzle: Exclusion 2)	18.6	–	–	37.1	14.7
GAGAAGGUAGGAUAUACGAAGAAAGAGGGUAGGAAUAAUACACAUGAGGAUCACCCAUGUAGAAGGACCAAGAG [Mat - Exclusion 2 - Mod of my Tesla design - D46] (puzzle: Exclusion 2)	21.4	–	–	38.7	24.2
GAGAAGGUAGGAUAUACGAAUAAAAAGGGUAGAAUAAUAACACAUGAGGAUCACCCAUGUAGAAGGACCAAGAG [Mat - Exclusion 2 - Mod of my Tesla design - D20] (puzzle: Exclusion 2)	25.1	–	–	45	26.5
GAGAAGGUAGGAUAUACGAAUAAAGAGGGUAGGAAUAAGACACAUGAGGAUCACCCAUGUAGAAGGACCAAGAG [Mat - Exclusion 2 - Mod of my Tesla design - D50] (puzzle: Exclusion 2)	20.3	–	–	37.1	21.4
GAGACUGGAGGAUAUACGAACUGGUGUAUCUGGAAGGAUCGACUUGAGGAUCACCCAAGUAGAAGGCUAGUGAA [Esgeti] (Eterna round: R97, puzzle: Exclusion 2)	–	395	40.5	–	–
GAGAGAAUCUAGGAUAUGUCAAGAGAAGGAGAGAUAGAAGGAGAGACAUGAGGAUCACCCAUGUCUUCGUGUAG [Default title] (Eterna round: R97, puzzle: Exclusion 6)	–	19.4	17.8	–	–
